How the values were obtained:
Conditions in all cases: both partners purified
[1] = target: T1, recombinant mouse laminin γ2 chain C-terminal coiled-coil fragment (949–1191) (mouse, UniProt Q61092 949-1191); assay: native gel or EMSA; mixtures of one β and one γ chain fragment; 10% non-denaturing PAGE (acid gels for basic complexes); mixtures reduced, heated to 70 °C for 5 min and cooled; run overnight at 50 V; Coomassie; bands confirmed by in-gel trypsin digestion and mass spectrometry
T1 construct: two residues (GlySer) left from the protease recognition site after thrombin cleavage; laminin γ2 chain, mouse, C-terminal coiled-coil fragment, residues 949-1191 of the native chain (243 residues); source: E. coli JM109(DE3), purified (Ni2+-Sepharose, denaturing, 8 M urea), 6xHis tag removed by thrombin; not shown: 6xHis, N-terminal, cleaved; pPEP-T leader (short C-terminal fragment of the …)
T1 sequence: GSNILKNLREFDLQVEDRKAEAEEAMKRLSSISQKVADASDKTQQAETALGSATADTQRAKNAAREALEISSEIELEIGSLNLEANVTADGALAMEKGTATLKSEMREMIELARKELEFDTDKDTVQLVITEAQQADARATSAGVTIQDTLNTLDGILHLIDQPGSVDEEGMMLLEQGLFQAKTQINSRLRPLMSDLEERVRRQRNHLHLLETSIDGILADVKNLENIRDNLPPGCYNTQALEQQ

[2] = target: T2, recombinant mouse laminin γ3 chain C-terminal coiled-coil fragment (1344–1581) (mouse, UniProt Q9R0B6 1344-1581); assay: as above
T2 construct: two residues (GlySer) left from the protease recognition site after thrombin cleavage; laminin γ3 chain, mouse, C-terminal coiled-coil fragment, residues 1344-1581 of the native chain (238 residues); source: E. coli JM109(DE3), purified (Ni2+-Sepharose, denaturing, 8 M urea), 6xHis tag removed by thrombin; not shown: 6xHis, N-terminal, cleaved
T2 sequence: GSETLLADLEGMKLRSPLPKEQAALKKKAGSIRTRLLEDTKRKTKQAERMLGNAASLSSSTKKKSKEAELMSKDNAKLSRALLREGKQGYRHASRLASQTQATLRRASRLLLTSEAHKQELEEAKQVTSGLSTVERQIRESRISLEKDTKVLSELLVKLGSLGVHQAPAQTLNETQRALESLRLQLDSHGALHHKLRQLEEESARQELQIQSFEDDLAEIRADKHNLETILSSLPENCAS

[3] = target: T3, recombinant mouse laminin γ1 chain C-terminal coiled-coil fragment (1362–1607) (mouse, UniProt P02468 1362-1607); assay: as above
T3 construct: two residues (GlySer) left from the protease recognition site after thrombin cleavage; laminin γ1 chain, mouse, C-terminal coiled-coil fragment, residues 1362-1607 of the native chain (246 residues); source: E. coli JM109(DE3), purified (Ni2+-Sepharose, denaturing, 8 M urea), 6xHis tag removed by thrombin; not shown: 6xHis, N-terminal, cleaved; pPEP-T leader (short C-terminal fragment of the …)
T3 sequence: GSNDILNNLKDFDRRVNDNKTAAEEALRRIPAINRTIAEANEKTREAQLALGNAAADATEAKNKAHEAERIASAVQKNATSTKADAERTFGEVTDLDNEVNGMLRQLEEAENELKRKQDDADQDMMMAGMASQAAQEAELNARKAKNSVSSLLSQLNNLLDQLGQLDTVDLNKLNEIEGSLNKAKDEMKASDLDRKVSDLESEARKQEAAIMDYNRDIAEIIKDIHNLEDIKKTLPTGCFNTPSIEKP

[4] = target: T4, β1γ1 complex of the recombinant mouse laminin coiled-coil fragments (mouse, UniProt P02469 1561-1786; P02468 1362-1607); assay: native gel or EMSA; mixtures of one α, one β and one γ chain fragment; 10% non-denaturing PAGE (acid gels for basic complexes); mixtures reduced, heated to 70 °C for 5 min and cooled; run overnight at 50 V, room temperature, no cooling; Coomassie; bands confirmed by in-gel trypsin digestion and mass spectrometry
T4 construct: two residues (GlySer) left from the protease recognition site after thrombin cleavage; laminin β1 chain, mouse, residues 1561-1786 of the native chain; as m6; laminin γ1 chain, mouse, residues 1362-1607 of the native chain; as m9; heterodimer by AUC; in the αβγ tests all three chains were mixed, the βγ complex was not isolated beforehand; source: mixture of the purified E. coli fragments; not …
T4 sequence 1: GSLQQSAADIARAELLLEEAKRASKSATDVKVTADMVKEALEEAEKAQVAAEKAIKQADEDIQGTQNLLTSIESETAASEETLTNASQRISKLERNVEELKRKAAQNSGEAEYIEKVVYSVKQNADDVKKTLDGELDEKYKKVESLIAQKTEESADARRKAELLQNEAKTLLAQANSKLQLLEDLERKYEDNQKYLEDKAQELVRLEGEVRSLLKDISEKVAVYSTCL
T4 sequence 2: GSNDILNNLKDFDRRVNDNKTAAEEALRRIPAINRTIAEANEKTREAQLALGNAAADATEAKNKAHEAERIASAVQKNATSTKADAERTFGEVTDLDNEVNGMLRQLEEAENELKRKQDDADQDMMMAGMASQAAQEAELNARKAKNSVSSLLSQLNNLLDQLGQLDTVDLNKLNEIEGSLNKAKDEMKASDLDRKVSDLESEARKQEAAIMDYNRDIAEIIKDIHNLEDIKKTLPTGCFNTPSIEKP

[5] = target: T5, β1γ3 complex of the recombinant mouse laminin coiled-coil fragments (mouse, UniProt P02469 1561-1786; Q9R0B6 1344-1581); assay: as above
T5 construct: two residues (GlySer) left from the protease recognition site after thrombin cleavage; laminin β1 chain, mouse, residues 1561-1786 of the native chain; as m6; laminin γ3 chain, mouse, residues 1344-1581 of the native chain; as m11; in the αβγ tests all three chains were mixed, the βγ complex was not isolated beforehand; source: mixture of the purified E. coli fragments; not shown: 6xHis, …
T5 sequence 1: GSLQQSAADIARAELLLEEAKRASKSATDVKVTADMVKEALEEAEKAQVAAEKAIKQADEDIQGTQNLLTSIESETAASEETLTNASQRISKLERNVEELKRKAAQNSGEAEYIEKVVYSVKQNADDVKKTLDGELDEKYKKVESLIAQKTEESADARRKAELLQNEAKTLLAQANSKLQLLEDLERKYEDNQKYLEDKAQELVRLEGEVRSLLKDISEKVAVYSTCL
T5 sequence 2: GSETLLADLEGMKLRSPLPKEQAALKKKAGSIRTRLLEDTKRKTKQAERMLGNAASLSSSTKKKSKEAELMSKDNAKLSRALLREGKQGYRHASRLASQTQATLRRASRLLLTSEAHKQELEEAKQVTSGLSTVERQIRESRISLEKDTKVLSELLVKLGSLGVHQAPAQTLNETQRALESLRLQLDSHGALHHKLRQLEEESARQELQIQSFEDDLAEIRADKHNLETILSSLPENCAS

[6] = target: T6, β2γ1 complex of the recombinant mouse laminin coiled-coil fragments (mouse, UniProt Q61292 1575-1799; P02468 1362-1607); assay: as above
T6 construct: two residues (GlySer) left from the protease recognition site after thrombin cleavage; laminin β2 chain, mouse, residues 1575-1799 of the native chain; as m7; laminin γ1 chain, mouse, residues 1362-1607 of the native chain; as m9; in the αβγ tests all three chains were mixed, the βγ complex was not isolated beforehand; source: mixture of the purified E. coli fragments; not shown: 6xHis, …
T6 sequence 1: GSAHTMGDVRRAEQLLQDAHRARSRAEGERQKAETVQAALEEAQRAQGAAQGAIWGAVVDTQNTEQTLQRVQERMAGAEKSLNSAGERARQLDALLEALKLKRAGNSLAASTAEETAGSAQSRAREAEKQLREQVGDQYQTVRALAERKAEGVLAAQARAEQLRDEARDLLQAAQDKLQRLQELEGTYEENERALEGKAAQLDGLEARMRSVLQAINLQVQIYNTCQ
T6 sequence 2: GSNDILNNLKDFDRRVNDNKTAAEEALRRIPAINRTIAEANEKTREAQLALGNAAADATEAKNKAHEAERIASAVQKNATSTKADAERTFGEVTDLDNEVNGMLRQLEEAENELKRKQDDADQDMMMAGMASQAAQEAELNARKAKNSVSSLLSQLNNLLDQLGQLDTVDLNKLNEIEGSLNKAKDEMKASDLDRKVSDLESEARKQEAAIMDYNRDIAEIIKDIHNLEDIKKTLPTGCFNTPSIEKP

[7] = target: T7, β2γ2 complex of the recombinant mouse laminin coiled-coil fragments (mouse, UniProt Q61292 1575-1799; Q61092 949-1191); assay: as above
T7 construct: two residues (GlySer) left from the protease recognition site after thrombin cleavage; laminin β2 chain, mouse, residues 1575-1799 of the native chain; as m7; laminin γ2 chain, mouse, residues 949-1191 of the native chain; as m10; in the αβγ tests all three chains were mixed, the βγ complex was not isolated beforehand; also called β2γ2 dimer; source: mixture of the purified E. coli fragments; not …
T7 sequence 1: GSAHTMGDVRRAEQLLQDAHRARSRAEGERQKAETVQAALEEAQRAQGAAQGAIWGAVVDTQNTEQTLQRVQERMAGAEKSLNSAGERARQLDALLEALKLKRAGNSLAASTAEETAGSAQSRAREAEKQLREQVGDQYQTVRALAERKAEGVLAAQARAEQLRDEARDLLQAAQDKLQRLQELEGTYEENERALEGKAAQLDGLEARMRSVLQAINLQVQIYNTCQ
T7 sequence 2: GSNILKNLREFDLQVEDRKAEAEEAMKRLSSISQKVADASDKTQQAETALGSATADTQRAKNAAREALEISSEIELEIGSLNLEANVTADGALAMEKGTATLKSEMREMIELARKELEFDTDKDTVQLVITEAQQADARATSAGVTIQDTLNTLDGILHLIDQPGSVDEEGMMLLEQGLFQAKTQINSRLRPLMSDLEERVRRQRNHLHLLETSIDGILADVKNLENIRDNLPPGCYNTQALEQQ

[8] = target: T8, β2γ3 complex of the recombinant mouse laminin coiled-coil fragments (mouse, UniProt Q61292 1575-1799; Q9R0B6 1344-1581); assay: as above
T8 construct: two residues (GlySer) left from the protease recognition site after thrombin cleavage; laminin β2 chain, mouse, residues 1575-1799 of the native chain; as m7; laminin γ3 chain, mouse, residues 1344-1581 of the native chain; as m11; in the αβγ tests all three chains were mixed, the βγ complex was not isolated beforehand; source: mixture of the purified E. coli fragments; not shown: 6xHis, …
T8 sequence 1: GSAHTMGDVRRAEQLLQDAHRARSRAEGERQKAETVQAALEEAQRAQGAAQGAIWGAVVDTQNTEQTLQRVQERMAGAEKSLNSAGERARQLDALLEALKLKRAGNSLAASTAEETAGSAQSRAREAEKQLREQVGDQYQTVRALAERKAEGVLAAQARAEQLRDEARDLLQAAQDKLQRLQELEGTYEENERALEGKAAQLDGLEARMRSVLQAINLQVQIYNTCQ
T8 sequence 2: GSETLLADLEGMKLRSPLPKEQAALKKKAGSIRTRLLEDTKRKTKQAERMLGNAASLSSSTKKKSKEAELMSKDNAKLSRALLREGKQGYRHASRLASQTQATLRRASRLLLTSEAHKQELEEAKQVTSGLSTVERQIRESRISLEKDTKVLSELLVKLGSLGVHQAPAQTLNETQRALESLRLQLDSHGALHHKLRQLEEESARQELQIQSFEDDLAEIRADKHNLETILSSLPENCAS

Measured: binding result

B1: recombinant mouse laminin β1 chain C-terminal coiled-coil fragment (1561–1786) (domain or fragment)
chain: GSLQQSAADIARAELLLEEAKRASKSATDVKVTADMVKEALEEAEKAQVAAEKAIKQADEDIQGTQNLLTSIESETAASEETLTNASQRISKLERNVEELKRKAAQNSGEAEYIEKVVYSVKQNADDVKKTLDGELDEKYKKVESLIAQKTEESADARRKAELLQNEAKTLLAQANSKLQLLEDLERKYEDNQKYLEDKAQELVRLEGEVRSLLKDISEKVAVYSTCL
notes: two residues (GlySer) left from the protease recognition site after thrombin cleavage; laminin β1 chain, mouse, C-terminal coiled-coil fragment, residues 1561-1786 of the native chain (226 residues); source: E. coli JM109(DE3), purified (Ni2+-Sepharose, denaturing, 8 M urea), 6xHis tag removed by thrombin; not shown: 6xHis, N-terminal, cleaved
binds: [1] | [2] | [3]

B2: recombinant mouse laminin α2 chain C-terminal coiled-coil fragment (1924–2145) (domain or fragment)
chain: GSYSNIKDYIDEAEKVAREAKELAQGATKLATSPQGLLKEDAKGSLQKSFRILNEAKKLANDVKGNHNDLNDLKTRLETADLRNSGLLGALNDTMDKLSAITNDTAAKLQAVKEKAREANDTAKAVLAQVKDLHQNLDGLKQNYNKLADSVAKTNAVVKDPSKNKIIADAGTSVRNLEQEADRLIDKLKPIKELEDNLKKNISEIKELINQARKQANSIKVSVS
notes: two residues (GlySer) left from the protease recognition site after thrombin cleavage; laminin α2 chain, mouse, C-terminal coiled-coil fragment, residues 1924-2145 of the native chain (222 residues); source: E. coli JM109(DE3), purified (Ni2+-Sepharose, denaturing, 8 M urea), 6xHis tag removed by thrombin; not shown: 6xHis, N-terminal, cleaved; pPEP-T leader (short C-terminal fragment of the …)
binds: [4] | [5] | [6]

B3: recombinant mouse laminin α4 chain C-terminal coiled-coil fragment (616–842) (domain or fragment)
chain: GSASNVYENIANYVSEANETAELALNITDRIYDAVSGIDTQIIYHKDESDNLLNQARELQAKADSSNDEAVADTSRRVGGALWRKGALRDRLNDAVKQLQAAERGDAHQRLGQSKLFIEEANKTTAAVQQVTTPMANNLSNWSQNLQTFDSSAYNTAVDSARDAVRNLTEVVPQLLDQLRTVEQKRPASNISASIQRIRELIAQTRSVASKIQVSMMFDGQSAVEVHPK
notes: two residues (GlySer) left from the protease recognition site after thrombin cleavage; laminin α4 chain, mouse, C-terminal coiled-coil fragment, residues 616-842 of the native chain (227 residues); source: E. coli JM109(DE3), purified (Ni2+-Sepharose, denaturing, 8 M urea), 6xHis tag removed by thrombin; not shown: 6xHis, N-terminal, cleaved; pPEP-T leader (short C-terminal fragment of the …)
binds: [4] | [6] | [7] | [8]

Source: PMC2877795, “Laminin chain assembly is regulated by specific coiled-coil interactions” (Journal of Structural Biology, 2010)
